The IC50 is the midpoint of a concentration-inhibition curve. A higher IC50 goes with weaker potency in that assay.

Numbering of substitutions follows the chain as printed.

Here are results for 20 molecules from US20160046944, “APTAMER TO IL-17 AND USE THEREOF” (THE UNIVERSITY OF TOKYO, published 2016).

First the molecules themselves.
T1: IL-17 (Homo sapiens, UniProt Q16552 Q16552:24-155)
T1 sequence: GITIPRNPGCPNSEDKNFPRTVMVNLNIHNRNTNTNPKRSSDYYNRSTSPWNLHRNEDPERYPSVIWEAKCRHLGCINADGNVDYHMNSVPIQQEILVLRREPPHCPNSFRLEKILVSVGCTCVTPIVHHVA

T2: IL-17 (IL-17A) (Homo sapiens, UniProt Q16552 Q16552:24-155)
T2 sequence: T1 sequence

B1: aptamer No. 1 (mixed)
RNA: GGGUAGCCGGAGGAGUCAGUAAUCGGUACCC
modifications: LNA (L), 2'-F (F), PS (S), mc methylcytosine as marked; SEQ ID NO:1 [LNA at 1-3,29-31 (29-31 methylcytosine); 2'-F at 4,7,8,16,17,20,23,24,27; PS at 6,9]
B2: aptamer No. 21 (mixed)
mixed: B1 RNA with U16T, U20T, U27T
modifications: 2'-OMe (M), 2'-F (F), PS (S) as marked; uppercase DNA [2'-OMe: 1-4,7,8,10,13,14,23-26,28-31; 2'-F: 17; PS: 6]
B3: aptamer No. 22 (mixed)
mixed: B1 RNA with U16T, U20T, U27T
modifications: 2'-OMe (M), 2'-F (F) as marked; uppercase DNA [2'-OMe: 1-4,7,8,10,13,14,23-26,28-31; 2'-F: 17]
B4: aptamer No. 9 (mixed)
mixed: B1 RNA with U16T, U20T
modifications: 2'-OMe (M), 2'-F (F), PS (S) as marked; uppercase DNA [1,2,3,4,6,7,8,10,11,13,14,17,18,21,22,23,24,25,26,27,28]
B5: aptamer No. 6 (mixed)
mixed: B1 RNA with U16T, U20T
modifications: 2'-OMe (M), 2'-F (F), PS (S) as marked; uppercase DNA; (NI) printed, likely (M) [1,2,3,4,5,6,7,8,10,13,14,17,18,21,22,23,24,25,26,27]
B6: aptamer No. 11 (mixed)
mixed: B1 RNA with U16T, U20T
modifications: 2'-OMe (M), 2'-F (F), PS (S) as marked; uppercase DNA [1,2,3,4,6,7,8,10,11,13,14,17,18,21,23,24,25,26,27,28]
B7: aptamer No. 8 (mixed)
mixed: B1 RNA with U16T, U20T
modifications: 2'-OMe (M), 2'-F (F), PS (S) as marked; uppercase DNA [1,2,3,4,6,7,8,10,11,13,14,17,18,23,24,25,26,27,28]
B8: aptamer No. 7 (mixed)
RNA: B1 RNA
modifications: 2'-OMe (M), 2'-F (F), PS (S) as marked; uppercase DNA [1,2,3,4,6,7,8,10,11,13,14,16,17,18,20,23,24,25,26,27,28]
B9: aptamer No. 10 (mixed)
mixed: B1 RNA with U16T, U20T
modifications: 2'-OMe (M), 2'-F (F), PS (S) as marked; uppercase DNA [1,2,3,4,5,6,7,8,10,11,13,14,17,18,21,23,24,25,26,27]
B10: aptamer No. 75 (mixed)
mixed: B1 RNA with U16T, U20T
modifications: g(M)g(M)g(M)u(M)a(M)gc(M)c(M)gg(M)a(F)gg(M)a(M)gTc(F)a(F)gTa(M)a(M)u(M)c(M)g(M)g(M)u(F)a(M)c(M)c(M)c(M)
B11: aptamer No. 80 (mixed)
RNA: B1 RNA
modifications: g(M)g(M)g(M)u(M)a(M)g(S)c(M)c(M)Gg(M)a(F)gg(M)a(M)gu(F)c(F)a(F)gu(F)a(M)a(M)u(M)c(M)g(M)g(M)u(F)Ac(M)c(M)c(M)
B12: aptamer No. 91 (mixed)
mixed: B1 RNA with U16T, U20T
modifications: g(M)g(M)g(M)u(M)a(M)g(S)c(M)c(M)Gg(M)a(M)gg(M)a(M)g(S)Tc(M)a(F)g(S)Taau(M)c(M)g(M)g(M)u(M)a(M)c(M)c(M)c(M)
B13: aptamer No. 78 (mixed)
mixed: B1 RNA with U16T, U20T
modifications: g(M)g(M)g(M)u(M)a(M)gc(M)c(M)Gg(M)a(F)gg(M)a(M)gTc(F)a(F)gTa(M)a(M)u(M)c(M)g(M)g(M)u(M)a(M)c(M)c(M)c(M)
B14: aptamer No. 90 (mixed)
mixed: B1 RNA with U16T, U20T
modifications: g(M)g(M)g(M)u(M)a(M)g(S)c(M)c(M)Gg(M)a(M)gg(M)a(M)g(S)Tc(M)a(F)g(S)Ta(M)au(M)c(M)g(M)g(M)u(M)a(M)c(M)c(M)c(M)
B15: aptamer No. 64 (mixed)
mixed: B1 RNA with U16T, U20T
modifications: g(M)g(M)g(M)u(M)a(M)g(S)c(M)c(M)Gg(M)a(F)gg(M)a(M)g(S)Tc(M)a(F)g(S)Ta(M)a(M)u(M)c(M)g(M)g(M)u(F)a(M)c(M)c(M)c(M)
B16: aptamer No. 87 (mixed)
mixed: B1 RNA with U16T, U20T, A21G
modifications: g(M)g(M)g(M)u(M)a(M)g(S)c(M)c(M)Gg(M)a(M)gg(M)a(M)g(S)Tc(M)a(F)g(S)Tga(M)u(M)c(M)g(M)g(M)u(M)a(M)c(M)c(M)c(M)
B17: aptamer No. 79 (ssRNA)
RNA: B1 RNA
modifications: g(M)g(M)g(M)u(M)a(M)gc(M)c(M)gg(M)a(F)gg(M)a(M)gu(F)c(F)a(F)gu(F)a(M)a(M)u(M)c(M)g(M)g(M)u(M)a(M)c(M)c(M)c(M)
B18: aptamer No. 69 (mixed)
RNA: B1 RNA
modifications: g(M)g(M)g(M)u(M)a(M)g(S)c(M)c(M)Gg(M)a(F)gg(M)a(M)gu(F)c(F)a(F)gu(F)a(M)a(M)u(M)c(M)g(M)g(M)u(F)a(M)c(M)c(M)c(M)
B19: aptamer No. 84 (mixed)
RNA: B1 RNA
modifications: g(M)g(M)g(M)u(M)a(M)g(S)c(M)c(M)Gg(M)a(M)gg(M)a(M)g(S)u(F)c(F)a(F)g(S)u(F)a(M)a(M)u(M)c(M)g(M)g(M)u(M)a(M)c(M)c(M)c(M)
B20: aptamer No. 60 (mixed)
mixed: B1 RNA with U16T, U20T
modifications: g(M)g(M)g(M)u(M)a(M)g(S)c(M)c(M)Gg(M)a(F)gg(M)a(M)g(S)Tc(F)a(F)g(M)Ta(M)a(M)u(M)c(M)g(M)g(M)u(F)a(M)c(M)c(M)c(M)

For one series, the target named is T1, IL-17. The experiment in a line: cell_activity; NIH3T3 IL-6 release. The note with it: chain copies: 2. As to the method: First, human IL-17 and the aptamer produced in Example 1-1 were pre-incubated at 37° C. for 30 min, and added to NIH3T3 cell (ATCC, CRL1658) together with mouse TNFα (2 ng/mL). Then, after incubation for 24 hr, the culture supernatant was collected, and the amount of IL-6 was measured by BD Cytometric Bead Array (BD Biosciences). The IL-17 inhibitory action of each aptamer was determined from the amount of IL-6. For comparison with the aptamer of the present invention, a conventionally-known aptamer (aptamer No. 50) against IL-17 was used.
On to B1, for which the IC50 is 1.17 nM.

For B2, the IC50 is 0.39 nM.

Molecule B3 yielded an IC50 of 1.66 nM.

Turning to B4, the IC50 worked out at 0.64 nM. Against the preceding molecule, the IC50 is about 2.6-fold lower.

B5 displayed an IC50 of 0.77 nM.

In turn, B6 showed an IC50 of 0.34 nM.

Take B7: the IC50 stood at 0.49 nM.

B8 registered an IC50 of 0.3 nM. Against the preceding molecule, the IC50 is about 1.6-fold lower.

B9: the half-maximal inhibitory concentration (IC50) turned out to be 0.63 nM.

Another series addresses T2, IL-17 (IL-17A). As to the kind of experiment: cell_activity; IL-6 release, NIH3T3. The note with it: chain copies: 2. Here is the method: First, human IL-17 and the aptamer produced in Example 1-2 were pre-incubated at 37° C. for 30 min, and added to NIH3T3 cell (ATCC, CRL1658) together with mouse TNFα (2 ng/mL). Then, after incubation for 24 hr, the culture supernatant was collected, and the production amount of IL-6 was measured by ELISA method described below. The IL-17 inhibitory action of each aptamer was determined from the production amount of IL-6. For comparison with the aptamer of the present invention, a conventionally-known aptamer (aptamer No. 50) against IL-17 was used.
ELISA method for verifying IL-17 inhibitory action of aptamer: A microtiter plate for ELISA was coated with rat anti-mouse IL-6 antibody (BD Biosciences, 2 μg/mL; 100 μL/well) diluted with PBS, and incubated at 4° C. overnight. The next day, the microtiter plate was washed 3 times with PBS/0.05% Tween 20, and applied blocking with PBS/1% BSA (200 μL/well) at room temperature for 2 hr. Then, the plate was washed 3 times with PBS/0.05% Tween 20. Recombinant mouse IL-6 (BD Biosciences; 100 μL/well) serially diluted with PBS/1% BSA/0.05% Tween 20 or culture supernatants (100 μL/well) were added to the plate. After incubation at room temperature for 2 hr, the plate was washed 3 times with PBS/0.05% Tween 20. Then, 100 μL/well of biotin conjugated rat anti-mouse IL-6 antibody (BD Biosciences) was added to the plate at final dilution of 1/500, and the mixture was reacted at room temperature for 1 hr. After washing 3 times with PBS/0.05% Tween 20, 100 μL/well of alkaline phosphatase conjugated streptavidin was added at final dilution of 1/1000. After 30 min at room temperature, the plate was again washed 4 times with PBS/0.05% Tween 20, and a substrate (1-Step PNPP; Thermo Fisher Scientific Inc; 100 μL/well) was added. After 15 min, aqueous sodium hydroxide solution (2N: 50 μL/well) was added to stop the reaction, and the plate was read on a microtiter reader (Bio-Rad) by using a 405 nm filter.
On to B10, for which the half-inhibitory concentration (IC50) worked out at 1.33 nM.

Molecule B11 had an IC50 of 1.52 nM. The IC50 values of the last two molecules are within 1.5-fold of each other.

As to B12, it took 3.86 nM to reach half-maximal inhibition (IC50).

In turn, B13 yielded an IC50 of 1.36 nM.

The molecule B14 came in with an IC50 of 1.08 nM.

The molecule B15 displayed an IC50 of 4.64 nM.

In turn, B16 showed a half-maximal inhibitory concentration (IC50) of 3.23 nM.

For B17, the IC50 came to 2.25 nM. This IC50 and that of the molecule before are within 1.5-fold of each other.

B18 had a half-maximal inhibitory concentration (IC50) of 1.73 nM.

As for B19, half-maximal inhibition (IC50) was put at 1.04 nM.

B20 returned an IC50 of 2.35 nM.

The target of another series is T1, IL-17. The experiment in a line: SPR; IL-17R-Fc on chip. The note with it: chain copies: 2. Here is the method:
Whether aptamers shown by aptamer Nos. 1-49 inhibit the binding of IL-17 and IL-17 receptor was evaluated by the surface plasmon resonance method.
For the measurement, BIAcore2000 manufactured by BIAcore was used. […] As an analyte, IL-17 (100 or 150 nM) and an aptamer (50 or 100 nM) shown by aptamer No. 1-49 were mixed, maintained for 15 min and after that the mixture was flown.
For orientation: In SPR one partner is held on a chip, and binding of the other changes the refractive index at the surface.
As to B1, the binding signal is 28.6 % IL-17/IL-17R binding remaining.

B4: the binding signal is 8.94 % IL-17/IL-17R binding remaining.

Consider B5, for which the binding signal was 25.3 % IL-17/IL-17R binding remaining.

B6: the binding signal was 16.8 % IL-17/IL-17R binding remaining.

For B7, the binding signal was 15.3 % IL-17/IL-17R binding remaining.

As for B8, the binding signal is 18.4 % IL-17/IL-17R binding remaining.

Consider B9, for which the binding signal is 25.2 % IL-17/IL-17R binding remaining.
